Laboratory results reported in publication PMC11139282, “Structure and activity of the septal peptidoglycan hydrolysis machinery crucial for bacterial cell division” (PLOS Biology, 2024).
Values belong to the binder of their own block, whether it stands above or below them.

Key:
EnvC_(35-420) [1] = molecular target: T1, EnvC_(35-420) (E. coli K-12, UniProt P37690 35-419); test: pull-down + SEC; purified FtsE^E163QX or FtsX incubated with EnvC(35-420)-Strep at a molar ratio of 1:1.5, moved into PMAL-C8; Strep column to remove unbound FtsEX or FtsX, then Superdex 200 in 20 mM Tris pH 8.0, 300 mM NaCl (1 mM ATP for FtsE^E163QX); peak validated by SDS-PAGE; settings: both partners purified
T1 construct: Only part of the coiled-coil domain is modelled in the cryo-EM structure; also called ecEnvC; source: E. coli C43(DE3), purified (Ni-NTA, SEC, TEV, Ni-NTA, SEC); not shown: His8, N-terminal, cleaved; SUMO, N-terminal, cleaved; Strep tag II, C-terminal, kept
T1 sequence (looked up): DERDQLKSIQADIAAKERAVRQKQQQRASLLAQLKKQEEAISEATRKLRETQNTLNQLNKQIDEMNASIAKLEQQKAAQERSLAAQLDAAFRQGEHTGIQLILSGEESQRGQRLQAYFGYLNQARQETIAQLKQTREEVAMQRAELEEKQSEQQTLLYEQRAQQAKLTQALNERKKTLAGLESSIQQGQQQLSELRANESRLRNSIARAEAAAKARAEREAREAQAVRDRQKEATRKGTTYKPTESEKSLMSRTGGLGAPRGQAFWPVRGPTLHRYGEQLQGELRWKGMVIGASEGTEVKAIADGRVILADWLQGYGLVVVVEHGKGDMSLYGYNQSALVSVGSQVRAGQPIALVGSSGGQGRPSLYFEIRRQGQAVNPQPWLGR

[2] = molecular target: the molecule itself; test: cryo-EM structure; ATP-bound FtsE^E163QX^Δ4-18-EnvC(35-420) reconstituted in PMAL-C8, about 1 mg/ml, 3.11 Å
EnvC_(35-420) [3] = molecular target: T1, EnvC_(35-420); test: as above; settings: both partners purified

binding result (EnvC_(35-420) [1]): binds
B1: FtsX (purified alone) (natural protein, E. coli K-12, UniProt P0AC30 1-352, looked up)
chain: MNKRDAINHIRQFGGRLDRFRKSVGGSGDGGRNAPKRAKSSPKPVNRKTNVFNEQVRYAFHGALQDLKSKPFATFLTVMVIAISLTLPSVCYMVYKNVNQAATQYYPSPQITVYLQKTLDDDAAAGVVAQLQAEQGVEKVNYLSREDALGEFRNWSGFGGALDMLEENPLPAVAVVIPKLDFQGTESLNTLRDRITQINGIDEVRMDDSWFARLAALTGLVGRVSAMIGVLMVAAVFLVIGNSVRLSIFARRDSINVQKLIGATDGFILRPFLYGGALLGFSGALLSLILSEILVLRLSSAVAEVAQVFGTKFDINGLSFDECLLLLLVCSMIGWVAAWLATVQHLRHFTPE
notes: FtsX, E. coli K-12; The plasmid section describes pET28a-ftsX (N-terminal 8xHis); the purification section names pSUMO-ftsX (His8-SUMO), tag not removed; Whether SUMO stood on the protein is open; not shown: His8, N-terminal, kept

B2: FtsE^E163Q (natural protein, E. coli K-12, UniProt P0A9R7 1-222, looked up)
chain: MIRFEHVSKAYLGGRQALQGVTFHMQPGEMAFLTGHSGAGKSTLLKLICGIERPSAGKIWFSGHDITRLKNREVPFLRRQIGMIFQDHHLLMDRTVYDNVAIPLIIAGASGDDIRRRVSAALDKVGLLDKAKNFPIQLSGGEQQRVGIARAVVNKPAVLLADQPTGNLDDALSEGILRLFEEFNRVGVTVLMATHDINLISRRSYRMLTLSDGHLHGGVGHE
notes: The pSUMO plasmid adds an N-terminal His8-SUMO-TEV site, removed by TEV; Two copies stand in the FtsEX complex; also called ecFtsE^E163Q; not shown: His8 (chain inferred: first gene of pSUMO-ftsEX), N-terminal, cleaved; SUMO (chain inferred: first gene of pSUMO-ftsEX), N-terminal, cleaved
binding result [2]: binds

binding result (EnvC_(35-420) [3]): binds
B3: FtsX^Δ4–18 (natural protein, E. coli K-12, UniProt P0AC30 1-352, looked up)
chain: MNKRFRKSVGGSGDGGRNAPKRAKSSPKPVNRKTNVFNEQVRYAFHGALQDLKSKPFATFLTVMVIAISLTLPSVCYMVYKNVNQAATQYYPSPQITVYLQKTLDDDAAAGVVAQLQAEQGVEKVNYLSREDALGEFRNWSGFGGALDMLEENPLPAVAVVIPKLDFQGTESLNTLRDRITQINGIDEVRMDDSWFARLAALTGLVGRVSAMIGVLMVAAVFLVIGNSVRLSIFARRDSINVQKLIGATDGFILRPFLYGGALLGFSGALLSLILSEILVLRLSSAVAEVAQVFGTKFDINGLSFDECLLLLLVCSMIGWVAAWLATVQHLRHFTPE
notes: FtsX, E. coli K-12, with residues 4-18 deleted; The results call the cryo-EM sample FtsE^E163QX; the methods say that the grids held FtsE^E163QX^Δ4-18; also called ecFtsX
binding result [2]: binds
